± gives the standard deviation of the averaged measurements.
How the values were obtained:
[1] = system: VchCAST RNA-guided transposition machinery (E. coli BL21(DE3) host, lacZ target); assay: relative integration efficiency (T-RL orientation) vs wild-type transposon end (log2 (normalized fold change)); transposon end mutated: right end (5 bp flank + 75 bp right end); higher = more efficient transposition
Method in brief: (§1)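 In E. coli BL21(DE3), a T7-driven effector plasmid was paired with a pUC57 mini-transposon donor containing 1549 left-end or 1849 right-end barcoded transposon variants. Cells grew on plates with 0.1 mM IPTG at 37°C for 18 h. Relative integration efficiency was derived from Illumina reads of genomic integration junctions against input plasmids, as a log-transformed output/input barcode fold change normalised to reference barcodes.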

[2] = system: VchCAST RNA-guided transposition machinery (E. coli BL21(DE3) host, lacZ target); assay: relative integration efficiency (T-LR orientation) vs wild-type transposon end (log2 (normalized fold change)); transposon end mutated: right end (5 bp flank + 75 bp right end); higher = more efficient transposition
Method in brief: as §1

Sequence	relative integration efficiency (log2) [1]	relative integration efficiency (log2) [2]
ACATTTGTTGATACAACCATAAAATGATAATTACACCCATAAATTGATAATTATCACACCCATAAATTGATCGGTAAGAGGATCATAGTCAGACCAACATTGCTACGACCCGTATTCGCACCGACAC	-0.421 ± 0.075	1.33 ± 0.2
ACATTTGTTGATACAACCATAAAATGATAATTACACCCATAAATTGATAATTATCACACCCATAAATTGATCTCTGATCATAGTCAGACCAACATTGCTACGACCCGTATTCGCACCGACACTGACT	-0.209 ± 0.021	0.731 ± 0.26
ACATTTGTTGATACAACCATAAAATGATAATTACACCCATAAATTGATAATTATCACACCCATAAATTGCGCGGTAAGAGGATCATAGTCAGACCAACATTGCTACGACCCGTATTCGCACCGACAC	-0.4 ± 0.022	2.18 ± 0.12
ACATTTGTTGATACAACCATAAAATGATAATTACACCCATAAATTGATAATTATCACACCCATAAATTTCGCGGTAAGAGGATCATAGTCAGACCAACATTGCTACGACCCGTATTCGCACCGACAC	-0.719 ± 0.14	2.22 ± 0.05
ACATTTGTTGATACAACCATAAAATGATAATTACACCCATAAATTGATAATTATCACACCCATAACGGTCGCGGTAAGAGGATCATAGTCAGACCAACATTGCTACGACCCGTATTCGCACCGACAC	-0.752 ± 0.12	2.14 ± 0.13
ACATTTGTTGATACAACCATAAAATGATAATTACACCCATAAATTGATAATTATCACACCCATACCGGTCGCGGTAAGAGGATCATAGTCAGACCAACATTGCTACGACCCGTATTCGCACCGACAC	-0.58 ± 0.031	2.44 ± 0.13
ACATTTGTTGATACAACCATAAAATGATAATTACACCCATAAATTGATAATTATCACACCCATCCCGGTCGCGGTAAGAGGATCATAGTCAGACCAACATTGCTACGACCCGTATTCGCACCGACAC	-0.648 ± 0.11	2.36 ± 0.21
ACATTTGTTGATACAACCATAAAATGATAATTACACCCATAAATTGATAATTATCACACCCCGCCCGGTCGCGGTAAGAGGATCATAGTCAGACCAACATTGCTACGACCCGTATTCGCACCGACAC	-0.532 ± 0.054	2.47 ± 0.19
ACATTTGTTGATACAACCATAAAATGATAATTACACCCATAAATTGATAATTATCACACCGTATAATTGATATTGCCTCTGATCATAGTCAGACCAACATTGCTACGACCCGTATTCGCACCGACAC	-0.648 ± 0.21	2.25 ± 0.06
ACATTTGTTGATACAACCATAAAATGATAATTACACCCATAAATTGATAATTATCACACCGTTAAATTGATATTGCCTCTGATCATAGTCAGACCAACATTGCTACGACCCGTATTCGCACCGACAC	-0.625 ± 0.1	1.85 ± 0.26
ACATTTGTTGATACAACCATAAAATGATAATTACACCCATAAATTGATAATTATCACACGGATAAATTGATATTGCCTCTGATCATAGTCAGACCAACATTGCTACGACCCGTATTCGCACCGACAC	-0.238 ± 0.062	1.28 ± 0.22
ACATTTGTTGATACAACCATAAAATGATAATTACACCCATAAATTGATAATTATCACACGGTAAAATTGATATTGCCTCTGATCATAGTCAGACCAACATTGCTACGACCCGTATTCGCACCGACAC	-0.357 ± 0.043	2.35 ± 0.067
ACATTTGTTGATACAACCATAAAATGATAATTACACCCATAAATTGATAATTATCACAGGCATAAATTGATATTGCCTCTGATCATAGTCAGACCAACATTGCTACGACCCGTATTCGCACCGACAC	-0.0803 ± 0.09	0.567 ± 0.2
ACATTTGTTGATACAACCATAAAATGATAATTACACCCATAAATTGATAATTATCACAGGGTTAAATTGATATTGCCTCTGATCATAGTCAGACCAACATTGCTACGACCCGTATTCGCACCGACAC	-0.425 ± 0.14	2.33 ± 0.045
ACATTTGTTGATACAACCATAAAATGATAATTACACCCATAAATTGATAATTATCACCAAAATAAATTGATATTGCCTCTGATCATAGTCAGACCAACATTGCTACGACCCGTATTCGCACCGACAC	-0.112 ± 0.18	2.72 ± 0.1
ACATTTGTTGATACAACCATAAAATGATAATTACACCCATAAATTGATAATTATCACCAAACGCCCGGTCGCGGTAAGAGGATCATAGTCAGACCAACATTGCTACGACCCGTATTCGCACCGACAC	-0.505 ± 0.14	2.47 ± 0.095
ACATTTGTTGATACAACCATAAAATGATAATTACACCCATAAATTGATAATTATCACCACCATAAATTGATATTGCCTCTGATCATAGTCAGACCAACATTGCTACGACCCGTATTCGCACCGACAC	0.659 ± 0.12	1.14 ± 0.095
ACATTTGTTGATACAACCATAAAATGATAATTACACCCATAAATTGATAATTATCACCCATAAATTGATATTGCCTCTGATCATAGTCAGACCAACATTGCTACGACCCGTATTCGCACCGACACTG	-0.448 ± 0.081	2.21 ± 0.045

Sequence	relative integration efficiency (log2) [1]	relative integration efficiency (log2) [2]
ACATTTGTTGATACAACCATAAAATGATAATTACACCCATAAATTGATAATTATCACTGCCATAAATTGATATTGCCTCTGATCATAGTCAGACCAACATTGCTACGACCCGTATTCGCACCGACAC	-0.228 ± 0.042	1.72 ± 0.2
ACATTTGTTGATACAACCATAAAATGATAATTACACCCATAAATTGATAATTATCACTGGGATAAATTGATATTGCCTCTGATCATAGTCAGACCAACATTGCTACGACCCGTATTCGCACCGACAC	-0.4 ± 0.027	2.07 ± 0.067
ACATTTGTTGATACAACCATAAAATGATAATTACACCCATAAATTGATAATTATCAGTCCCATAAATTGATATTGCCTCTGATCATAGTCAGACCAACATTGCTACGACCCGTATTCGCACCGACAC	-0.441 ± 0.031	1.51 ± 0.031
ACATTTGTTGATACAACCATAAAATGATAATTACACCCATAAATTGATAATTATCAGTGGCATAAATTGATATTGCCTCTGATCATAGTCAGACCAACATTGCTACGACCCGTATTCGCACCGACAC	-0.377 ± 0.12	1.86 ± 0.12
ACATTTGTTGATACAACCATAAAATGATAATTACACCCATAAATTGATAATTATCAGTGGGTATTTAACTATAACGCTCTGATCATAGTCAGACCAACATTGCTACGACCCGTATTCGCACCGACAC	-0.681 ± 0.17	2.65 ± 0.1
ACATTTGTTGATACAACCATAAAATGATAATTACACCCATAAATTGATAATTATCCAACCCATAAATTGATATTGCCTCTGATCATAGTCAGACCAACATTGCTACGACCCGTATTCGCACCGACAC	-0.362 ± 0.18	0.964 ± 0.12
ACATTTGTTGATACAACCATAAAATGATAATTACACCCATAAATTGATAATTATCCACAAACGCCCGGTCGCGGTAAGAGGATCATAGTCAGACCAACATTGCTACGACCCGTATTCGCACCGACAC	-0.795 ± 0.075	2.3 ± 0.11
ACATTTGTTGATACAACCATAAAATGATAATTACACCCATAAATTGATAATTATCCACACCATAAATTGATATTGCCTCTGATCATAGTCAGACCAACATTGCTACGACCCGTATTCGCACCGACAC	-0.495 ± 0.13	0.485 ± 0.4
ACATTTGTTGATACAACCATAAAATGATAATTACACCCATAAATTGATAATTATCCACCCATAAATTGATATTGCCTCTGATCATAGTCAGACCAACATTGCTACGACCCGTATTCGCACCGACACT	-0.433 ± 0.14	0.607 ± 0.072
ACATTTGTTGATACAACCATAAAATGATAATTACACCCATAAATTGATAATTATCCCACCCCATTTAACTATAACGCTCTGATCATAGTCAGACCAACATTGCTACGACCCGTATTCGCACCGACAC	-1.3 ± 0.37	2.388 ± 0.023
ACATTTGTTGATACAACCATAAAATGATAATTACACCCATAAATTGATAATTATCTGACCCATAAATTGATATTGCCTCTGATCATAGTCAGACCAACATTGCTACGACCCGTATTCGCACCGACAC	-0.393 ± 0.12	0.513 ± 0.03
ACATTTGTTGATACAACCATAAAATGATAATTACACCCATAAATTGATAATTATCTGTGCCATAAATTGATATTGCCTCTGATCATAGTCAGACCAACATTGCTACGACCCGTATTCGCACCGACAC	-0.555 ± 0.23	2.04 ± 0.1
ACATTTGTTGATACAACCATAAAATGATAATTACACCCATAAATTGATAATTATGACACCGAATTTAACTATAACGCTCTGATCATAGTCAGACCAACATTGCTACGACCCGTATTCGCACCGACAC	-1.22 ± 0.39	2.37 ± 0.096
ACATTTGTTGATACAACCATAAAATGATAATTACACCCATAAATTGATAATTATGTCACCCATAAATTGATATTGCCTCTGATCATAGTCAGACCAACATTGCTACGACCCGTATTCGCACCGACAC	-0.72 ± 0.15	0.557 ± 0.054
ACATTTGTTGATACAACCATAAAATGATAATTACACCCATAAATTGATAATTATGTGTCCCATAAATTGATATTGCCTCTGATCATAGTCAGACCAACATTGCTACGACCCGTATTCGCACCGACAC	-0.725 ± 0.24	1.63 ± 0.16
ACATTTGTTGATACAACCATAAAATGATAATTACACCCATAAATTGATAATTCACACCCATAAATTGATATTGCCTCTGATCATAGTCAGACCAACATTGCTACGACCCGTATTCGCACCGACACTG	-1.06 ± 0.18	1.41 ± 0.045
ACATTTGTTGATACAACCATAAAATGATAATTACACCCATAAATTGATAATTCGACACAAACGCCCGGTCGCGGTAAGAGGATCATAGTCAGACCAACATTGCTACGACCCGTATTCGCACCGACAC	0.636 ± 0.17	3.748 ± 0.033
